Reference: patent US20100008928A1 (Takeda / Millennium, published 2010)
Substitutions are numbered along the chain they refer to.

Experiments:
[1] = molecular target: T1, nectin-2 Ig1 domain-deficient protein (human, UniProt Q92692 32-538); assay: FCM
T1 construct: transient in CHO-K1; also called delta-Ig1; Nectin-2ΔIg1
T1 sequence: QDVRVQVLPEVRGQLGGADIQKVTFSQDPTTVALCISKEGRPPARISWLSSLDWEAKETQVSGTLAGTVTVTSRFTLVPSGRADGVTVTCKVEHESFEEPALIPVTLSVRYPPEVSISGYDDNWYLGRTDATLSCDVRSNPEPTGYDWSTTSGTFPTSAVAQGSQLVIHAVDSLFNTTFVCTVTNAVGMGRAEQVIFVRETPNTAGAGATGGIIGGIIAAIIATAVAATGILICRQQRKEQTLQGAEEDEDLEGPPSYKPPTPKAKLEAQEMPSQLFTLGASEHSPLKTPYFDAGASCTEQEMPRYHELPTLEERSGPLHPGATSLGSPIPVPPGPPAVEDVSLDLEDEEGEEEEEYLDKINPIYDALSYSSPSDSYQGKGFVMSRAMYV
Protocol: (§1) After 200 μL of FCM buffer was added to each well and washed once by centrifugal operation, 50 μL each of Alexa488-labeled secondary antibody diluted in FCM buffer to 10 μg/mL was added to and mixed therewith, and the mixture was then reacted on ice for an hour. The Alexa488-labeled secondary antibody used was Alexa Fluor488 goat anti-human IgG (H+L) for the human antibodies and Alexa Fluor488 goat anti-rabbit IgG (H+L) (Invitrogen) for the rabbit antibody. The cells in each well were washed twice with FCM buffer and then resuspended in 250 μL of FCM buffer. Using the flow cytometer MPL500 (BECKMAN COULTER), the fluorescence intensity of stained cells was measured to determine the ratio of the median value of fluorescence intensities of the respective antibodies in the primary antibody group to the median value of fluorescence intensities in the negative control group.

[2] = molecular target: T2, nectin-2 Ig2 domain-deficient protein (human, UniProt Q92692 32-538); assay: FCM
T2 construct: transient in CHO-K1; also called delta-Ig2; Nectin-2ΔIg2
T2 sequence: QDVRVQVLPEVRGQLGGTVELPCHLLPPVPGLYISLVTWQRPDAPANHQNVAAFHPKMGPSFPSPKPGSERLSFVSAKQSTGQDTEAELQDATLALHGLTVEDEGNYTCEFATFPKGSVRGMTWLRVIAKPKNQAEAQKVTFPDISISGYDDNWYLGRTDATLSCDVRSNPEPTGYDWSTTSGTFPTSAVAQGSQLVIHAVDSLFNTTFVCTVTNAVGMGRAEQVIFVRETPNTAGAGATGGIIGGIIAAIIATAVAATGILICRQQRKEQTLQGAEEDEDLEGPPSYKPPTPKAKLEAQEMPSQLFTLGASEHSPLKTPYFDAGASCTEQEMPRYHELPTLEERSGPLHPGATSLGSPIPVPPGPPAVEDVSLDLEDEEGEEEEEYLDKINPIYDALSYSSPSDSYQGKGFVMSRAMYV
Protocol: as §1

human nectin-2δ protein [3] = molecular target: T3, human nectin-2δ protein (human, UniProt Q92692 32-538); assay: FCM
T3 sequence: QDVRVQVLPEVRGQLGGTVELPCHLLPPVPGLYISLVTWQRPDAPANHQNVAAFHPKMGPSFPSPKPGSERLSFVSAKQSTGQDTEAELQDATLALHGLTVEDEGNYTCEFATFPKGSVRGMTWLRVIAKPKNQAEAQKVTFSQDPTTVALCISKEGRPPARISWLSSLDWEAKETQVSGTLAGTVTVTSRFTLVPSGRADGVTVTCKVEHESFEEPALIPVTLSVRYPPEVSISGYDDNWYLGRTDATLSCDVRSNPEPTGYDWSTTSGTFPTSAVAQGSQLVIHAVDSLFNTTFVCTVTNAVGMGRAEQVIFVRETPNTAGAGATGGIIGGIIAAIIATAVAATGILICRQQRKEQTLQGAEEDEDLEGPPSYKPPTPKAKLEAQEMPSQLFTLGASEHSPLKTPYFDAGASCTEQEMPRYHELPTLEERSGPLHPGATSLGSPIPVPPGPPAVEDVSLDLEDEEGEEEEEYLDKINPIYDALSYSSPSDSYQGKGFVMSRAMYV
Protocol: (§2) Then, after 200 μL of FCM buffer was added to each well and washed once by centrifugal operation, 50 μL each of Alexa488-labeled secondary antibody diluted in FCM buffer to 10 μg/mL was added thereto for suspension, and the mixture was then reacted on ice for an hour. As secondary antibodies, Alexa Fluor488 goat anti-human IgG (H+L) was used for the human antibodies and Alexa Fluor488 goat anti-rabbit IgG (H+L) (Invitrogen) was used for the rabbit antibody, respectively. Next, the cells were washed twice with FCM buffer and then resuspended in 250 μL of FCM buffer.

[4] = molecular target: T4, cynomolgus monkey nectin-2 protein (cynomolgus monkey, UniProt Q92692 32-538 (human entry)); assay: FCM
T4 construct: transient in CHO-K1; also called maNectin-2
T4 chain: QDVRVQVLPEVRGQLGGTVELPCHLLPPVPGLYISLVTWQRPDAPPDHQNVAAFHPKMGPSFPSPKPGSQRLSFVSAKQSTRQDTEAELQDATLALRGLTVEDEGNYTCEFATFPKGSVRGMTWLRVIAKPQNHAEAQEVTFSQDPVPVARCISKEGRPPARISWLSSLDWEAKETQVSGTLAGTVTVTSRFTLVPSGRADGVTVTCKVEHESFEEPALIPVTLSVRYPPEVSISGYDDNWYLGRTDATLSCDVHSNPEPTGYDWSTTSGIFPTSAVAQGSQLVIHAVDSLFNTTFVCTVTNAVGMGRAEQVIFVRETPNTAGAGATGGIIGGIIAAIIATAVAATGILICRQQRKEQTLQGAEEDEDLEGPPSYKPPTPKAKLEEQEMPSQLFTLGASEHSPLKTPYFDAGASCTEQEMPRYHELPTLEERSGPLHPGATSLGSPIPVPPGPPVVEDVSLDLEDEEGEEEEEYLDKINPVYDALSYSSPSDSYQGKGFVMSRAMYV
Protocol: as §2

[5] = molecular target: T5, human nectin-2δ AN77-78PD (human, UniProt Q92692 32-538); assay: FCM
T5 construct: transient in CHO-K1; also called Nectin-2 (AN77-78PD)
T5 sequence: T3 sequence with A46P, N47D
Protocol: (§3) Then, after 200 μL of FCM buffer was added to each well and washed once by centrifugal operation, 50 μL of Alexa Fluor488 goat anti-human IgG (H+L) diluted in FCM buffer to 10 μg/mL was added thereto for suspension, and the mixture was then reacted on ice for an hour. Next, the cells were washed twice with FCM buffer and resuspended in 250 μL of FCM buffer. Using flow cytometer MPL500 (BECKMAN COULTER), the fluorescence intensities of stained cells were measured, respectively.

human nectin-2δ G113R = molecular target: T6, human nectin-2δ G113R (human, UniProt Q92692 32-538); assay: FCM
T6 construct: transient in CHO-K1; also called Nectin-2 (G113R)
T6 sequence: T3 sequence with G82R
Protocol: as §3

human nectin-2δ H128R = molecular target: T7, human nectin-2δ H128R (human, UniProt Q92692 32-538); assay: FCM
T7 construct: transient in CHO-K1; also called Nectin-2 (H128R)
T7 sequence: T3 sequence with H97R
Protocol: as §3

human nectin-2δ protein [6] = molecular target: T3, human nectin-2δ protein; assay: Cell ELISA
Protocol: In other words, the CHO cell line (#43-2) stably expressing nectin-2δ and the mock-CHO cell line were incubated in a 96-well tissue culture plate charged with GS-selection DMEM medium supplemented with 10% dialyzed FBS and GS supplement. After the culture supernatant of the plate where each cell line became confluent was removed by aspiration, 200 μL/well of PBS(+) supplemented with 2% FBS was added thereto and incubated on ice in the dark for an hour. After the supernatant of each well was removed by aspiration, 50 μL each/well of the hybridoma culture supernatant was added and reacted on ice in the dark for 2 hours. After this plate was washed once with PBS(+) chilled at 4° C., anti-human IgG (H+L) chain specific (GOAT) peroxidase conjugate (CALBIOCHEM) diluted to 3,000-fold with PBS(+) supplemented with 2% FBS was added by 100 μL each/well and reacted on ice in the dark for 2 hours. […] Absorbance (450 nm) of each well was measured using a plate reader (Multiskan BICHROMATIC; Thermo Electron Co.), and those showing absorbance of 0.5 or more in the nectin-2 expression CHO cell line plate and showing absorbance of less than 0.3 in the mock-CHO cell line plate were judged to be positive wells. […]

median fluorescence ratio [1]: 3.6 | median fluorescence ratio (human nectin-2δ protein [3]): 43 | median fluorescence ratio [4]: 14.8 | median fluorescence ratio [5]: 44.2 | median fluorescence ratio (human nectin-2δ G113R): 38.7 | median fluorescence ratio (human nectin-2δ H128R): 51.5 | EC50 (human nectin-2δ protein [6]): 1.11 nM
B1: Nec1-554-1 (antibody, human IgG1, V domains shown)
VH: EVQLVESGGGLVKPGGSLRLSCAASGFTFSSYNMNWVRQAPGKGLEWVSSISSSSSYIYYADSVKGRFTISRDNAKNSLYLQMNSLRAEDTAVYYCARDYYGSGTYYLFDYWGQGTLVTVSS
VL: EIVLTQSPDFQSVTPKEKVTITCRASQSIGSSLHWYQQKPDQSPKLLIKYASQSFSGVPSRFSGSGSGTDFTLTINSLEAEDAAAYYCHQSRSLPITFGQGTRLEIK
notes: human IgG1/k from hybridoma FERM BP-10681
binding result [2]: no binding (tested: ratio <2 = no reactivity; 6 µg/mL)
